This note sets out measurements from article PMC10786891, “Massively parallel profiling of RNA-targeting CRISPR-Cas13d”.

Numbering of substitutions follows the chain as printed. Numbers in names are those of the source.

To fix the notation:
T1: dEsCas13d (Eubacterium siraeum, UniProt B0MS50 1-954, R295A;H300A;R849A;H854A)
T1 sequence: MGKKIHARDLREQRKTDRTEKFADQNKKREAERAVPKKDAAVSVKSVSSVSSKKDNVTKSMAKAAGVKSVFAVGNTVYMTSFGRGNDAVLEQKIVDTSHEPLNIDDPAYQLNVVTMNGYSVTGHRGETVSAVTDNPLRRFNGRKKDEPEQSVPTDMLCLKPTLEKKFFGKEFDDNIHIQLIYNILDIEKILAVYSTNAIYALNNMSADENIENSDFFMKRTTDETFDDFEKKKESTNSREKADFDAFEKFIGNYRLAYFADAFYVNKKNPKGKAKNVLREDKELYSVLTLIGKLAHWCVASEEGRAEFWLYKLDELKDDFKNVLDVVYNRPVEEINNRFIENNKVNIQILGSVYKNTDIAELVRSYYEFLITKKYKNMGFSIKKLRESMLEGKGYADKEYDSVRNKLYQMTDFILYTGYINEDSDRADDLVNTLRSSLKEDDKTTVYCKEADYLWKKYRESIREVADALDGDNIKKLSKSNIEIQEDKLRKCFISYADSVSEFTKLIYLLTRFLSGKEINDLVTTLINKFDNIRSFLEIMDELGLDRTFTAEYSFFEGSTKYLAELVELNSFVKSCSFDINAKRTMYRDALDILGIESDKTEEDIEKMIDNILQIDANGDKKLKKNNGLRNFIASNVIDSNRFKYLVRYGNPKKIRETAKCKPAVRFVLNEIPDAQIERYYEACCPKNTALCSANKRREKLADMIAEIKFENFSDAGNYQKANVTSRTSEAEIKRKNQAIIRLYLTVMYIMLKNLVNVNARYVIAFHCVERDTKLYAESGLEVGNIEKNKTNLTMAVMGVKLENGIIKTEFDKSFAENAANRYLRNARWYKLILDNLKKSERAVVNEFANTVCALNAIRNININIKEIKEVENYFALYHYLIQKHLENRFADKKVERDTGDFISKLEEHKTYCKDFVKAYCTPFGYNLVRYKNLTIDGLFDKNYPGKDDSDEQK

T2: RfxCas13d (CasRx), nuclease-dead (Ruminococcus flavefaciens, R239A;H244A;R858A;H863A)
T2 chain: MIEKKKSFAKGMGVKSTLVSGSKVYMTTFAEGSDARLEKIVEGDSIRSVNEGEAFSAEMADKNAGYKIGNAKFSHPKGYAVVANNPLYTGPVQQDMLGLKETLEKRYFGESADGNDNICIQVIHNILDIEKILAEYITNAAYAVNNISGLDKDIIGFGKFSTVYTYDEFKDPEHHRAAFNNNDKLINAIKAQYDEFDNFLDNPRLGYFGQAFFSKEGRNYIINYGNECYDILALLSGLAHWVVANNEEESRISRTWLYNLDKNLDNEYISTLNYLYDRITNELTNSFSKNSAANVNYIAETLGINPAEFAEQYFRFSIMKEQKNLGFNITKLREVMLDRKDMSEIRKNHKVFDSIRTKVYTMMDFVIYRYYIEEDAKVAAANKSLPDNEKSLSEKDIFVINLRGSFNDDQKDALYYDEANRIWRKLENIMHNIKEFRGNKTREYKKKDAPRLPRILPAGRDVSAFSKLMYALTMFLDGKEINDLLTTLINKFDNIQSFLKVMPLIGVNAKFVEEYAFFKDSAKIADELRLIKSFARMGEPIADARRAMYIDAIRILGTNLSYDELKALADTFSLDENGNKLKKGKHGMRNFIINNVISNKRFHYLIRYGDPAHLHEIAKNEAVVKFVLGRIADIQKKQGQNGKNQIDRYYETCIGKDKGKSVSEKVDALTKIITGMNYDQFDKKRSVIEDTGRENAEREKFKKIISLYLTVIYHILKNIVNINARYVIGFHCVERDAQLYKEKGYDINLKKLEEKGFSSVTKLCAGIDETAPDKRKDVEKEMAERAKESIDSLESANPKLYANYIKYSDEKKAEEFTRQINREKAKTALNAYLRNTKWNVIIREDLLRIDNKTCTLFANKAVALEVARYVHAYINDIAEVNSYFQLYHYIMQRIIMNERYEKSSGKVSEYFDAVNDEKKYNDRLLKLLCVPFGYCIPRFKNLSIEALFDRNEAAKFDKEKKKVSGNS

B1: crRNA_Target 1 / U9-flanked target (ssRNA)
RNA 1: CACCCGUGCAAAAAUGCAGGGGUCUAAAACUGAGCGGAUAACCUCUCUAUGG
RNA 2: UUUUUUUUUCCAUAGAGAGGUUAUCCGCUCAUUUUUUUUU
B2: crRNA_Target 1 / MT (5'-GUA PFS) (ssRNA)
RNA 1: B1 RNA 1
RNA 2: CCACAUCUACGAAUUCGUACCAUAGAGAGGUUAUCCGCUCACCGAGAUCGGAAGAGCACA
B3: target 1 C4A (60-mer) (mixed)
RNA 1: AACCCCUACCAACUGGUCGGGGUUUGAAACUGAGCGGAUAACCUCUCUAUGG
RNA 2: B2 RNA 2 with C38A
B4: target 1 U10G (60-mer) (mixed)
RNA 1: B3 RNA 1
RNA 2: B2 RNA 2 with U32G
B5: target 1 C2G (60-mer) (mixed)
RNA 1: B3 RNA 1
RNA 2: B2 RNA 2 with C40G
B6: target 1 A20C (60-mer) (mixed)
RNA 1: B3 RNA 1
RNA 2: B2 RNA 2 with A22C
B7: target 1 MT (60-mer) (mixed)
RNA 1: B3 RNA 1
RNA 2: B2 RNA 2
B8: target 1 C22A (60-mer) (mixed)
RNA 1: B3 RNA 1
RNA 2: B2 RNA 2 with C20A
B9: target 1 A18G (60-mer) (mixed)
RNA 1: B3 RNA 1
RNA 2: B2 RNA 2 with A24G
B10: target 1 C7A (60-mer) (mixed)
RNA 1: B3 RNA 1
RNA 2: B2 RNA 2 with C35A
B11: target 1 G15A (60-mer) (mixed)
RNA 1: B3 RNA 1
RNA 2: B2 RNA 2 with G27A
B12: target 1 G5U (60-mer) (mixed)
RNA 1: B3 RNA 1
RNA 2: B2 RNA 2 with G37U

By Kd is commonly meant a measure of binding affinity in units of concentration.

The target of the first series is T1, dEsCas13d. The series can be described thus: BLI; 6 mM Mg2+; BLI: 40 mM Tris-HCl pH 7.5, 150 mM NaCl, 6 mM MgCl2, 1 mM DTT, 0.1% Tween-20, 0.2 mg/ml BSA; RNP 25-100 nM (dRfx 25 nM only); temperature not stated. Conditions: protein: recombinant; tags: 6xHis-TwinStrep-SUMO, cleaved; 22 nt crRNA-target match. On the technique in general: Biolayer interferometry detects binding as a change in optical thickness at a sensor tip.
As to B1, the Kd stood at 1.6 ± 0.024 nM.

Staying with this series, now noted: protein: recombinant; tags: 6xHis-TwinStrep-SUMO, cleaved; label: 3' biotin on target; 22 nt crRNA-target match.
Take B2: the Kd came out at 3.1 ± 0.018 nM.

A further series has as its target T2, RfxCas13d (CasRx), nuclease-dead. The series can be described thus: BLI; crRNA (strand 1, pre-loaded); Mg2+; 40 mM Tris-HCl pH 7.5, 150 mM NaCl, 6 mM MgCl2, 1 mM DTT, 0.1% Tween-20, 0.2 mg/ml BSA; temperature not stated. The conditions noted are these: tags: His6-TwinStrep-SUMO cleaved; label: 3' biotin on strand 2.
For the molecule B3, the Kd is ~0.132 nM.
Still for that read-out and setting: to B4 belongs ~0.271 nM.
The same measure, in the same setting: as for B5, the figure is ~0.109 nM; as for B6, ~0.556 nM; as for B7, ~0.104 nM.
On the same count and under the same terms, to B8 belongs ~0.291 nM; to B9, ~0.886 nM.
On to B10, for which the equilibrium dissociation constant (Kd) was ~0.175 nM.
Still for that read-out and setting: as for B11, the figure is ~0.119 nM; as for B12, ~1.12 nM.

Another series has as its system dRfxCas13d (Ruminococcus flavefaciens). In words: BLI. Conditions: 6 mM Mg2+; BLI: 40 mM Tris-HCl pH 7.5, 150 mM NaCl, 6 mM MgCl2, 1 mM DTT, 0.1% Tween-20, 0.2 mg/ml BSA; RNP 25-100 nM (dRfx 25 nM only); temperature not stated.
Regarding “AACCCCUACCAACUGGUCGGGGUUUGAAACUGAGCGGAUAACCUCUCUAUGG / CCACAUCUACGAAUUCGUACCAUAGAGAGGUUAUCCGAUCACCGAGAUCGGAAGAGCACA [Rfx crRNA_Target 1 / C4A]”, the Kd was 0.132 nM.
